B1: EBNA1^435-449 peptide (peptide)
peptide: EQGPADDPGEGPSTG
modifications: not checked
B2: MDM2^137-152 peptide (peptide)
peptide: LVQELQEEKPSSSHL
modifications: not checked
B3: vIRF4^209-216 peptide (peptide)
peptide: EGASTSGM
modifications: not checked

Target: HAUSP TRAF domain (HAUSP^62-205) (human)
Assay: ITC, titration against HAUSP TRAF domain, 20 °C

Binder	n (stoichiometry)	Ka [M⁻¹]
B1	0.81	–
B2	–	90000
B3	0.81	–

— patent publication US20130330358A1, “CRYSTAL STRUCTURE AND PEPTIDE INHIBITORS OF HAUSP DEUBIQUITINASE” (priority 2011, published 2013)
